From patent US8835609B2, “Antigen binding sites to non-functional oligomeric P2X7 receptors and methods of use thereof” (Biosceptre International Limited, priority 2009, dated 2014)

Columns and labels:
[1] = target: T1, red blood cells expressing function-capable P2X7 receptor (Mus musculus, UniProt Q9Z1M0); assay: Binding to red blood cells in tumour sections; format: in vivo; details: adjacent red blood cells in Lewis Lung tumour section
T1 construct: from tissue; host or cells: red blood cells in formalin-fixed Lewis Lung tumour sections from antibody-treated mice
T1 sequence (Q9Z1M0 1-595): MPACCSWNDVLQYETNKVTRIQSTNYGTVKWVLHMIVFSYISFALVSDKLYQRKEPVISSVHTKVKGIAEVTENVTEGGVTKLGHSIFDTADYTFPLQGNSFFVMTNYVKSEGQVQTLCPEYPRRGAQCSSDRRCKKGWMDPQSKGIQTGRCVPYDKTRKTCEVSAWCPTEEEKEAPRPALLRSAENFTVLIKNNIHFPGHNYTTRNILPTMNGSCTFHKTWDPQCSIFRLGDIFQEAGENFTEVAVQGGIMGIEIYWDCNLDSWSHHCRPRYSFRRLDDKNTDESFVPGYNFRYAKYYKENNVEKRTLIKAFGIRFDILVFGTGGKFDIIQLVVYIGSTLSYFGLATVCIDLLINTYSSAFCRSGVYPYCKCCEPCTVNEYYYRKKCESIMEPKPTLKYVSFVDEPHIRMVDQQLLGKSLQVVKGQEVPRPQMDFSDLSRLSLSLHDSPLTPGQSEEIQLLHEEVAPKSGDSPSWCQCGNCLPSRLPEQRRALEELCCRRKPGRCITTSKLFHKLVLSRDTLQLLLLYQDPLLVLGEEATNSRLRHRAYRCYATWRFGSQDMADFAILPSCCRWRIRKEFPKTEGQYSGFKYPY
Experimental: Female BALB/c mice inoculated with the orthotopic syngeneic 4T1 murine mammary tumours in their third mammary fat pads or NOD/SCID female mice inoculated with the orthotopic human Hep3b xenograft tumour in their livers were treated intravenously with either a human domain antibody (2-2-1 hFc) directed at a monomeric target (epitope E200 on P2X7) or 2F6-hIgG1 directed at the compound epitope E200-300. All procedures approved by the Animal Ethics Committee at The University of Adelaide (M46-2008). Antibody penetration into the tumours was measured using Jackson Immunosearch goat anti-human antibody on tumour sections that were removed from the mice two days post antibody treatment. The tumours were fixed in 10% neutral buffered formalin for 48 hours, embedded in paraffin, sectioned to 5 um, deparaffinized, and stained for human antibody. The Biocare Mach 4 secondary detection system was used, comprising a specific goat antibody probe followed by a polymer with HRP then stained with DAB.

[2] = test system: 4T1 mouse breast tumour cells; assay: 4T1 syngeneic xenograft model, lung metastases; format: in vivo; parameters: number of lung metastases, % of control / average metastasis volume, % of control / reduction of total metastasis volume / total metastasis volume, % of control: concentration or dose not given beside the values; details: Day 14
Experimental: Reagents for culture of 4T1 mouse breast tumour cells were obtained from the following suppliers: RPMI 1640 cell culture medium, FCS, Glutamax, HBSS and penicillin-streptomycin from Invitrogen Australia (Mt Waverley, VIC, Australia); and Trypan Blue from Sigma-Aldrich (Castle Hill, NSW, Australia). Matrigel™ was obtained from BD Biosciences (North Ryde, NSW, Australia).
Tumour cells (Passage 2 from working stock) were cultured in RPMI 1640 cell culture medium, supplemented with 10% FCS, 1% Glutamax and 1% penicillin-streptomycin. The cells were harvested by trypsinisation, washed twice in HBSS and counted. The cells were then resuspended in HBSS:Matriger™ (1:1, v/v) to a final concentration of 5×10^7 cells/mL.
(§1) Dosing occurred every 3 days at antibody concentrations of 1 or 10 mg/kg i.v. or with PBS for treatment control or Sorafenib at 5 mL/kg daily as a positive control in the Lewis Lung model. Mice were randomised into equal groups of 10 mice, based on tumour volume on Day 0 of the studies.
(§2) Mice were anaesthetised for blood collection and euthanised by exsanguination via terminal cardiac bleed 48 hours post-final dose, on Days 11 or 14 post-initial treatment.
(§3) The lungs were excised from all mice. Lung surface metastases were counted and were categorised according to size: small (<1 mm), medium (≧1 mm and <3 mm) and large (≧3 mm). Excised lungs were preserved in 10% neutral buffered formalin.

Lewis Lung (LL) tumour = assay: Lewis Lung (LL) syngeneic xenograft model, lung metastases; format: in vivo, mouse; details: Day 11
Experimental: as §1, §2, §3
The syngeneic Lewis Lung model was used with additional control groups. Besides the PBS control group of ten mice (Group 1), a positive control group using daily Sorafenib at 5 mL/kg was included (Group 5) along with antibody treatment groups consisting of sheep affinity purified E200-300 polyclonal antibody at 10 mg/kg (Group 2), 2F6-hIgG1 at 1 mg/kg (Group 3) and 2F6-hIgG1 at 10 mg/kg (Group 4).

B1: 2F6 hIgG1: mouse scFv from 2F6 grafted into a human format of type IgG1, expressed in HEK293 cells (antibody, V domains shown)
VH: DVKLVESGGGLVKLGGSLKLSCAASGFTFSSYYMSWVRQTPEKRLELVAAINSNGGSTYYPDTVKGRFTISRDNAKNTLYLQMSSLKSEDTAFYYCTRHYSSRFFDVWGAGTTVTVSS
VL: MADIVMTQSQKFMSTSVGDRVSVTCKASQNVGTNVAWYQQKPGQSPKALIYSASFRYSGVPDRFTGSGSGTDFTLTISNVQSEDLAEFFCQQYNSYPFTFGSGTRLEIK
- labelling of red blood cells [1]: entirely unlabelled
- number of lung metastases ([2]; BALBc mice, i.v. every 3 days): 3.4±0.7
- average metastasis volume [2]: 1.28 mm^3
- average metastasis volume, % of control [2]: 22%
- number of lung metastases, % of control [2]: 53%
- total metastasis volume [2]: 43 mm^3
- total metastasis volume, % of control [2]: 11.8%
- reduction of total metastasis volume ([2]; listed as 2F6-hIgG1): 88%
- reduction of total metastasis volume ([2]; listed as 2F6hIgG1): 89%
- Mean Lung Surface Mets (Lewis Lung (LL) tumour; antibody 1 mg/kg i.v. every 3 days): 0.9
- Mean Lung Surface Mets (Lewis Lung (LL) tumour; antibody 10 mg/kg i.v. every 3 days): 0.2
- inhibition of lung metastases relative to PBS control (Lewis Lung (LL) tumour; antibody 10 mg/kg): 96%
